Source: patent US20240240209A1, “SYNTHESIS OF ENANTIOPURE CIS-A-IRONE FROM A RENEWABLE CARBON SOURCE” (Agency for Science, Technology and Research, priority 2021, published 2024)
Positions count from the first letter of the chain named. Numbers in names are those of the source.

Experiment: Cell lysate reaction of pMT enzymes with psi-ionone, irones quantified by HS-SPME-GCMS
Type: biochemical
Conditions: for cis-α-irone content (percentage of cis-α-irone in the irone mixture): cell extracts with psi-ionone; for fold change in cis-α-irone produced: AUC vs non-mutated (=1); for irone production / methyltransferase activity towards psi-ionone (in words): cell lysate reaction, vs parent or control
Experimental: Using the structure of pMT1 in complex with the cofactor S-adenosyl-L-homocysteine (SAH) and the substrate teleocidin A1 (PDB id: 5GM2) as a template, pMT1 bound to each of the four isomers of α-irone was modelled with the aim of identifying amino acid residues that could be critical to increase cis-α-irone or decrease trans-α-irone production (FIGS. 2d and 2e). […] Site-directed mutagenesis of the 24 residues was carried out with degenerative primers. Subsequently, the mutants of each site were pooled together, and examined if the activity or product-selectivity of the pooled mutants were increased (FIG. 8). This reduced the number of screening reactions to 24, which is manageable when a high-throughput enzymatic assay is not available. […] One residue was chosen and subjected to site-saturation mutagenesis by using degenerative primers containing NNN or NNK. The plasmid library was then transformed into E. coli BL21 (DE3) cells and plated on agar plate containing autoinduction media^19. […] Subsequently, the colonies were collected and resuspended in phosphate saline buffer. Equal number of cells was taken for lysis and cell lysate reactions were carried out in capped SPME-GC vials at 28° C. for 2 days. HS-SPME-GCMS analysis was used to quantify the amount of irones produced by each pooled-colony reaction. […] 24 residues including the control Gly85 (G85m) were subjected to site-saturation mutagenesis, using pMT1 as the template. […] The amount of cis-α-irone produced was estimated based on the area under the gas chromatogram curve (AUC). The fold change is calculated by comparing the AUC of cis-α-irone produced by the mutant enzyme to that of non-mutated.
For each pMT mutant, it was transformed into BL21 and grown in autoinduction media with 5 mM lactose at 20° C. for 36 hrs. Then, cells were pelleted and concentrated 10 times by adding 1 ml of PBS. The OD600 was measured and 40*600 OD*ul cells were transferred into a new 1.5 ml tube. The cells were spun down and resuspended in 600 μl of lysis buffer (1×DNase buffer, 150 mM NaCl, 0.5% glycerol, 1 mg/ml lysozyme and 20U of DNasel). The cells were incubated for 2 hrs at 20° C. with shaking at 300 rpm. Following that, 2 cycles of freeze-thaw was done to completely lyse the cells. At the end of the 2nd thawing, the cell lysate was used to setup a 1 ml reaction in 2 ml GC vials. The reaction consisted of 50 mM Tris (pH7), 10 mM MgCl2, 60 mM NaCl, 0.2 mM SAM and 10 mg/L of psi-ionone and caryophyllene each. To this, 500 μl of cell lysate was added while the remaining 100 μl was used for SDS-PAGE to analyze the total and soluble protein expression. The reaction was incubated for 2 days at 28° C., 300 rpm prior to extraction of cis-α-irone with 500 μl hexane. From this, 20 μl of organic layer was taken into 180 μl hexane for GCMS analysis.
For the mutant pMT activity screening, the reactants and products were analyzed by head space solid phase microextraction (HS-SPME) coupled with an Agilent 5977B gas chromatography (GC) system equipped with Agilent DB-5 ms column (30 m×250 μm×0.25 μm) and mass spectrometry (MS) with high efficiency source. The reaction mixtures were carried out in SPME vials which were incubated at 60° C. for 20 mins to allow the release of volatile compounds. The absorbent fiber (50/30 μm divinylbenzol/carboxen/polydimethyl-SPME fiber, SUPELCO) was then exposed to the headspace of the vial for 20 mins. The extracted analytes were desorbed at the GC inlet at 250° C. for 1 min and injected into GC with a split ratio of 200:1. The GC oven temperature increased from 50° C. to 140° C. at a rate of 10° C./min and held at 140° C. for 10 min. Subsequently, the temperature was increased to 320° C. at a rate of 60° C./min and held at 320° C. for 2 mins.

B1: pMT2: pMT1 with Y200F (protein)
chain: MPQEARTPQQQVTADEVGDWYDKFGEVYHLTLGESVHCGLWFPPDAPVPQDMELVTMSSQAQDRYTDYLIETLDPKAGQHLLDIGCGTGRTALKAARQRGIAVTGVAVSKEQIAAANRLAAGHGLTERLTFEVADAMRLPYEDESFDCAWAIESLCHMDRAKALGEAWRVLKPGGDLLVLESVVTEELTEPETALFETLFAANVPPRLGEFFDIVSGAGFHTLSLKDLSANLAMTMNVFALGVYSRRAEFTERFGAEFVDGLLAGLGSAQETLIRKTRFFMATLRKPAV
modifications: Modified from pMT1
notes: pMT1 with Y200F
  cis-α-irone content (percentage of cis-α-irone in the irone mixture): ~68%
pMT1_Y200 mutants
  fold change in cis-α-irone produced: 12.2
pMT2_C156 mutants
  fold change in cis-α-irone produced: 1.0
pMT2_F196 mutants
  fold change in cis-α-irone produced: 1.0
pMT2_L180 mutants
  fold change in cis-α-irone produced: 1.0
pMT2_L232 mutants
  fold change in cis-α-irone produced: 1.0
pMT2_M236 mutants
  fold change in cis-α-irone produced: 1.0
pMT2_S182 mutants
  fold change in cis-α-irone produced: 1.0
pMT2_T277 mutants
  fold change in cis-α-irone produced: 1.0
pMT2_V36 mutants
  fold change in cis-α-irone produced: 1.0
Vs pMT1, TTN = cis-α-irone produced / soluble pMT enzyme
  improvement of total turnover number (TTN): > 12 fold

B2: pMT1_Y200I: pMT1 with Y200I (protein)
chain: B1 chain with F200I
pMT1_Y200 mutants
  fold change in cis-α-irone produced: 2.0

B3: pMT1_Y200H: pMT1 with Y200H (protein)
chain: B1 chain with F200H
pMT1_Y200 mutants
  fold change in cis-α-irone produced: 0.2

B4: pMT1_E153G: pMT1 with E153G (protein)
chain: B1 chain with E153G, F200Y
pMT1_E153 mutants
  fold change in cis-α-irone produced: 0.0

B5: pMT6: pMT1 with Y200F S182E L273V L180A A202L (protein)
chain: B1 chain with L180A, S182E, A202L, L273V
modifications: Modified from pMT1
notes: pMT1 with Y200F S182E L273V L180A A202L
  irone production / methyltransferase activity towards psi-ionone (in words): significantly increased the cis-α-irone concentration
Cell lysate with psi-ionone
  β-irone share of the irone mixture: ~30%
pMT5_A202 mutants
  fold change in cis-α-irone produced: 4.3
pMT6_C156 mutants
  fold change in cis-α-irone produced: 1.0
pMT6_Y65 mutants
  fold change in cis-α-irone produced: 1.0

B6: pMT1_Y200L: pMT1 with Y200L (protein)
chain: B1 chain with F200L
  irone production / methyltransferase activity towards psi-ionone (in words): improved trans-α-irone production
pMT1_Y200 mutants
  fold change in cis-α-irone produced: 0.4

B7: pMT1_M236F: pMT1 with M236F (protein)
chain: B1 chain with F200Y, M236F
pMT1_M236 mutants
  fold change in cis-α-irone produced: 0.0

B8: pMT1_M236I: pMT1 with M236I (protein)
chain: B1 chain with F200Y, M236I
pMT1_M236 mutants
  fold change in cis-α-irone produced: 0.5

B9: pMT1_M236H: pMT1 with M236H (protein)
chain: B1 chain with F200Y, M236H
pMT1_M236 mutants
  fold change in cis-α-irone produced: 2.6

B10: pMT1_E153F: pMT1 with E153F (protein)
chain: B1 chain with E153F, F200Y
pMT1_E153 mutants
  fold change in cis-α-irone produced: 0.0

B11: pMT1_M236G: pMT1 with M236G (protein)
chain: B1 chain with F200Y, M236G
pMT1_M236 mutants
  fold change in cis-α-irone produced: 0.0

B12: pMT8: pMT1 with Y200F S182E L273V L180A A202L C156P (protein)
chain: B1 chain with C156P, L180A, S182E, A202L, L273V
modifications: Modified from pMT1
notes: pMT1 with Y200F S182E L273V L180A A202L C156P
  irone production / methyltransferase activity towards psi-ionone (in words): further improved the TTN of the enzyme
pMT6_C156 mutants
  fold change in cis-α-irone produced: 1.1

B13: pMT1_E153I: pMT1 with E153I (protein)
chain: B1 chain with E153I, F200Y
pMT1_E153 mutants
  fold change in cis-α-irone produced: 0.0

B14: pMT1_R160I: pMT1 with R160I (protein)
chain: B1 chain with R160I, F200Y
pMT1_R160 mutants
  fold change in cis-α-irone produced: 1.5

B15: pMT9: pMT1 with Y200F S182E L273V L180A A202L Y65F C156A (protein)
chain: B1 chain with C156A, L180A, S182E, A202L, L273V
modifications: Modified from pMT1
notes: pMT1 with Y200F S182E L273V L180A A202L Y65F C156A
  irone production / methyltransferase activity towards psi-ionone (in words): increased both α- and β-irone production

B16: pMT1_E153H: pMT1 with E153H (protein)
chain: B1 chain with E153H, F200Y
pMT1_E153 mutants
  fold change in cis-α-irone produced: 0.0

B17: pMT1_R160F: pMT1 with R160F (protein)
chain: B1 chain with R160F, F200Y
pMT1_R160 mutants
  fold change in cis-α-irone produced: 0.0

B18: pMT1_R160G (protein)
chain: B1 chain with R160G, F200Y
pMT1_R160 mutants
  fold change in cis-α-irone produced: 0.0

B19: pMT1_Y200G: pMT1 with Y200G (protein)
chain: B1 chain with F200G
pMT1_Y200 mutants
  fold change in cis-α-irone produced: 0.1

B20: pMT1_R160H: pMT1 with R160H (protein)
chain: B1 chain with R160H, F200Y
pMT1_R160 mutants
  fold change in cis-α-irone produced: 1.0

B21: pMT5: pMT1 with Y200F S182E L273V L180A (protein)
chain: B1 chain with L180A, S182E, L273V
modifications: Modified from pMT1
notes: pMT1 with Y200F S182E L273V L180A
  cis-α-irone content (percentage of cis-α-irone in the irone mixture): ~90%
pMT4_L180 mutants
  fold change in cis-α-irone produced: 1.8
pMT5_A102 mutants
  fold change in cis-α-irone produced: 1.0
pMT5_A202 mutants
  fold change in cis-α-irone produced: 1.0
pMT5_T104 mutants
  fold change in cis-α-irone produced: 1
